B1: SERPINB5 (parent)
chain: FPESETKECPFRVNKVCGAACSSK
B2: FAM107A (parent)
chain: LQRVLEHRRRNQLIKKKKEELEAK

Variants of: B1
Assay: protein stability index of a GFP-peptide fusion (GPS, HEK-293T) (PSI 1-6); higher = more stable
Details: c terminus: a fixed tail appended
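Further: lentivirally expressed fusions sorted by FACS into six bins by GFP to DsRed ratio, PSI derived from sequencing read proportions per bin multiplied by bin number.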

In order of falling protein stability index:
1. F11H  5.17
2. F11N  5.12
3. F11K  5.11
4. F11P  4.96
5. F1K  4.89
6. P2D  4.73
7. F11R  4.67
8. R12E  4.59
9. C9A  4.49
10. C9V  4.4
11. C9K  4.37
12. P10E  4.31
13. K15H  4.17
14. S4D  4.14
15. V13Q  4.03
16. V13K  3.93
17. C9M  3.81
18. S4K  3.78
19. R12A  3.76
20. P2Q  3.73
21. P2S  3.66
22. V13S  3.66
23. R12N  3.66
24. R12K  3.57
25. V13T  3.54
26. S23H  3.33
27. G18K  3.24
28. V13L  3.19
29. C21E  3.19
30. S4C  3.16
31. A19D  3.03
32. C9N  3
33. S23K  2.97
34. S23N  2.96
35. K24D  2.94
36. C9Y  2.92
37. C17G  2.91
38. C21S  2.9
39. V16D  2.89
40. G18D  2.89
41. V16N  2.82
42. A19G  2.81
43. K24H  2.81
44. V16R  2.8
45. C17F  2.79
46. K7E  2.78
47. S23D  2.78
48. A19Q  2.7
49. S23C  2.66
50. T6W  2.65
51. G18A  2.65
52. T6R  2.63
53. C21T  2.62
54. E8T  2.6
55. G18N  2.59
56. S22E  2.57
57. K7V  2.53
58. C17Y  2.51
59. A19E  2.5
60. K24Q  2.45
61. C21H  2.44
62. K24A  2.42
63. S22M  2.4
64. S4L  2.35
65. S23Q  2.35
66. C21M  2.35
67. N14L  2.35
68. A19Y  2.29
69. A20K  2.26
70. S23I  2.26
71. E8A  2.25
72. K24S  2.25
73. K15G  2.22
74. C21L  2.2
75. P2H  2.19
76. N14Y  2.19
77. V16M  2.18
78. K24V  2.17
79. F11W  2.16
80. C9S  2.15
81. V16Y  2.14
82. E8I  2.13
83. K15I  2.12
84. S22V  2.1
85. T6L  2.1
86. A20Q  2.09
87. G18F  2.09
88. A19P  2.08
89. A19W  2.08
90. P2I  2.07
91. C9W  2.07
92. N14K  2.07
93. G18L  2.05
94. V13Y  2.03
95. A20M  2.01
96. E3V  1.99
97. K7Y  1.97
98. N14I  1.96
99. E5D  1.92
100. K7F  1.89
101. E8M  1.86
102. E5I  1.8
103. G18V  1.75
104. K24W  1.46

Variants of: B2
Assay: as above
Details: c terminus: a fixed tail appended

In order of falling protein stability index:
1. K17D  4.78
2. K15E  4.74
3. L13E  4.54
4. I14M  4.54
5. K18A  4.54
6. K16G  4.52
7. K18F  4.52
8. K15G  4.49
9. K16D  4.44
10. K18D  4.4
11. I14D  4.39
12. K17T  4.38
13. K18P  4.37
14. K24E  4.35
15. L13G  4.31
16. K17E  4.31
17. K17G  4.27
18. A23W  4.26
19. I14V  4.25
20. K15H  4.23
21. K24C  4.22
22. E22K  4.21
23. E19D  4.2
24. L13H  4.18
25. I14E  4.18
26. K15P  4.18
27. L21N  4.16
28. K15A  4.16
29. K16A  4.15
30. L21R  4.14
31. A23E  4.14
32. Q12P  4.12
33. Q12E  4.11
34. I14F  4.1
35. L13P  4.07
36. Q12R  4.07
37. K16N  4.07
38. Q12A  4.05
39. L21D  4.01
40. K15N  4
41. Q12K  4
42. K16S  4
43. E20S  3.99
44. A23L  3.99
45. K15M  3.98
46. K24S  3.97
47. K24T  3.97
48. K16E  3.94
49. K18T  3.93
50. L21S  3.92
51. I14S  3.92
52. K24V  3.91
53. K24Q  3.9
54. K24D  3.89
55. K18E  3.89
56. L21A  3.88
57. K15T  3.87
58. A23Q  3.87
59. K15S  3.86
60. K16T  3.85
61. K15L  3.84
62. L13M  3.83
63. L13F  3.83
64. K16Q  3.82
65. K17Q  3.8
66. L21H  3.77
67. K24N  3.77
68. L13I  3.76
69. K24F  3.75
70. A23D  3.75
71. E20P  3.74
72. L21T  3.74
73. I14N  3.74
74. K17W  3.74
75. Q12D  3.74
76. Q12I  3.74
77. L13Q  3.73
78. K17F  3.73
79. L13S  3.72
80. E20D  3.71
81. I14T  3.71
82. K15Q  3.7
83. A23G  3.7
84. K18H  3.67
85. I14R  3.66
86. Q12T  3.66
87. L21G  3.63
88. K24G  3.63
89. A23S  3.63
90. N11K  3.62
91. I14Q  3.62
92. K24A  3.62
93. K18S  3.62
94. K15D  3.61
95. N11S  3.6
96. L13N  3.6
97. E22Q  3.59
98. E20V  3.58
99. K16W  3.58
100. K24I  3.57
101. K18M  3.57
102. A23N  3.56
103. K17H  3.52
104. K15C  3.52
105. E22T  3.51
106. L13A  3.51
107. K15Y  3.51
108. E20M  3.5
109. K17L  3.5
110. Q12H  3.5
111. L21Q  3.48
112. A23R  3.48
113. A23Y  3.48
114. L21P  3.46
115. E20T  3.45
116. Q12M  3.45
117. Q12V  3.45
118. E22A  3.44
119. I14H  3.44
120. K24P  3.44
121. K17A  3.44
122. L13K  3.43
123. I14C  3.42
124. E19P  3.41
125. K18N  3.41
126. N11M  3.4
127. A23M  3.39
128. N11T  3.38
129. L13Y  3.37
130. K17Y  3.37
131. K18C  3.37
132. L21V  3.36
133. E20N  3.35
134. E20I  3.35
135. E20K  3.34
136. K15R  3.34
137. E22G  3.33
138. K24H  3.33
139. L13T  3.32
140. L21M  3.32
141. I14P  3.31
142. L13C  3.3
143. L21C  3.3
144. K24M  3.3
145. L13D  3.29
146. I14Y  3.28
147. K16I  3.28
148. E22Y  3.26
149. K16C  3.26
150. N11V  3.25
151. K17V  3.25
152. N11P  3.24
153. I14L  3.24
154. K15I  3.24
155. E19Y  3.23
156. K18V  3.21
157. E19M  3.19
158. E19T  3.19
159. L21W  3.18
160. K17M  3.16
161. E19S  3.13
162. E20A  3.12
163. E19I  3.12
164. Q12S  3.11
165. K18Y  3.11
166. A23T  3.11
167. Q12N  3.1
168. K18W  3.1
169. N11Q  3.09
170. K16M  3.09
171. E22L  3.08
172. L13V  3.08
173. K24L  3.04
174. K16R  3.04
175. K18Q  3.04
176. E20L  3.03
177. A23V  3.03
178. K16H  3
179. L21K  2.99
180. E19N  2.98
181. A23C  2.98
182. N11I  2.97
183. N11Y  2.97
184. E19K  2.97
185. E22S  2.96
186. E20Y  2.94
187. E22V  2.88
188. K24W  2.88
189. E19H  2.87
190. A23K  2.86
191. Q12G  2.85
192. E22M  2.83
193. E20H  2.83
194. E22N  2.82
195. K18L  2.81
196. K17C  2.8
197. Q12Y  2.8
198. L21I  2.78
199. E22P  2.77
200. A23H  2.76
201. E22W  2.75
202. A23I  2.75
203. K18I  2.74
204. L21F  2.71
205. E19V  2.7
206. Q12F  2.66
207. N11L  2.65
208. E22D  2.62
209. K24Y  2.62
210. K24R  2.61
211. E22F  2.59
212. E22I  2.58
213. K17I  2.58
214. E19Q  2.56
215. E19R  2.56
216. E22C  2.54
217. E20F  2.52
218. L21Y  2.46
219. E19C  2.46
220. E20G  2.42
221. K16Y  2.41
222. E22H  2.33
223. E20W  2.29
224. E22R  2.26
225. E19F  2.22
226. Q12L  2.2
227. E20Q  2.12
228. N11W  1.93
229. E19L  1.86
230. Q12W  1.5
